Substrate in the series: NC(=O)C1=CN([C@@H]2O[C@H](COP(=O)(O)OP(=O)(O)OC[C@H]3O[C@@H](n4cnc5c(N)ncnc54)[C@H](OP(=O)(O)O)[C@@H]3O)[C@@H](O)[C@H]2O)C=CC1
Put plainly: purified protein. The settings on record: reduction of cinnamaldehyde; varied: cofactor.

B1: NtDBR (Nicotiana tabacum) (protein)
chain: MAEEVSNKQVILKNYVTGYPKESDMEIKNVTIKLKVPEGSNDVVVKNLYLSCDPYMRSRMRKIEGSYVESFAPGSPITGYGVAKVLESGDPKFQKGDLVWGMTGWEEYSIITPTQTLFKIHDKDVPLSYYTGILGMPGMTAYAGFHEVCSPKKGETVFVSAASGAVGQLVGQFAKMLGCYVVGSAGSKEKVDLLKSKFGFDEAFNYKEEQDLSAALKRYFPDGIDIYFENVGGKMLDAVLVNMKLYGRIAVCGMISQYNLEQTEGVHNLFCLITKRIRMEGFLVFDYYHLYPKYLEMVIPQIKAGKVVYVEDVAHGLESAPTALVGLFSGRNIGKQVVMVSRE
With B1, the Michaelis constant (Km) (commonly the concentration of substrate that gives half-maximal velocity) amounted to 91 µM and the kcat was 40 min^–1.

The values above are taken from PMC4731831, “Better than Nature: Nicotinamide Biomimetics That Outperform Natural Coenzymes” (Journal of the American Chemical Society, 2016).
